The nature of the series: soluble on expression in E. coli; label from the status in PepcDB or PDB records.
“MGSDKIHHHHHHINVYFRGPRTHRMPQWVRVVFLQFLPKLVCMKRPKSASERSAVRSGMAQLPGVGQFTLSPSAHHPLCPSADDRTTTIRNTASNETSAYYPLSTDALRAIDAIEYITEHLKRDEQHKSFRDDWKYVAMIIDRL”: the “soluble on expression in E. coli” value is “not soluble”.
On to “AEPTTHFGYQNVPESQKAKKVAEVFHSVAAKYDLMNDLMSGGIHRLWKRFTIELSGVRSGNRVLDIAGGTGDLTRQFSRLVGPTGEVVLADINASMLKVGRDKLLDKGVSGNVSFVQADAEKLPFPDNHFDCVTIAFGLRNVTHKDEAIRSMLRVLKPGGRLLVLEFSKPSSNLLSKAYDAYSFSLLPLMGKLVTNDSESYRYLAESIRMHPDQETLKAMMVEAGFDRVTYHNMTGGIV”, for which the “soluble on expression in E. coli” value is reported as “not soluble”.
The value for “MEGLLIDYVQPGSIAEELEIEAGDRLVAINGQDLRDIIDFSFYAHDEELALEIVKPSGDHWEAEIERDGDEPLGLVFAPPVPAQCGNKCVFCFVHQLPLEHHHHHH” was “soluble”; that for “FFALDYKRTEYVQYEDDEYYYYVKAVPKLNVASEDVRIKHINAKKTKKTSDIRDMKKTSSHRAESGYQAASAEEDDDILFYDNDDK” was “not soluble”; that for “MADEKMSEFTDEELNKKVKELQDAVIEKVRTEAETPAVSGGYPGSNAYRPELDRVPSREEILERISWLREMIDDILKPKPSDFDPLIEKTEKLRDLFGVESHQPGGDSRLRNIDTSKNAIQQWDGAFADNLAEKYFAPLEDVRGNHGRMAKVLNENAVAMKATYVHARGQAKRTLDDGVKAIEAIVDSKGSDLKILLAILTGATSLITPLLPSKTAVQLGSAGLSTLLSNLGEAGPEEQEEVPLGADTPEGVMDNVKEALEKVKTKRGEDEDSIIKAVNDSEKAIYERMTKSTHQTEDDPIYAPRPTIMDSSKPSEGLTKD” was “not soluble”.
The value for “LLESRELVEKIVSILEEKKAKDLNIIDIREISILADYFVICSGTSTTHIKTLADEVEEKMLEAGIELLHKEGYNSARWILLDYGEVVVHIFHEEDRQFYNLERLWADGVMKHRQ” was “soluble”.
With “MGSDKIHHHHHHMSYLTSSRCKLFYEDTAEQNPSLKDKPAILFVNGWAISSRYWRPTIDLLRQDFRCVTYDQSGTGKTSIDGCQPDLTIGGFADEAGALIEHLGLDKSRNLHIVGHSMGGMVATELCLRYRDALLSATILACGIFEETPFTSLGLMFLGGLIDVSMNFRNMFRVEPLRTLFIKRAATGHISKEYSDIIIEDFTTSDKAATNAVGHFSIDPEALRTYTRSVIEIASPVLCCVGMADHTIPPEGTITLFEKRKASATSPTRLVQFMHLGHLPMLEDTPCFVEQLKKHFDFAEHFYKKTQPATPLADRVQIQ” the entry was “not soluble”.
On to “MVRVPLTAEELERGQRLGELLRSARGDMSMVTVAFDAGISVETLRKIETGRIATPAFFTIAAVARVLDLSLDDVAAVVTFGPVSTS”, for which the “soluble on expression in E. coli” value is on record as “soluble”.
The value for “MILTEQEKAEVEANRRRYEQHKALGQQQAPKALPPPTPRDGAPIAPESIIHRETVPGGWYYVTKLGRGEAVRIINTSGTSCVSIQAWNALDPSERLNHADTIKVQWAASLRKGRVILSDMGRALLSIIEDTSGAHDTMVGGSNAATNAERYGVGSFRNARDNFVLAAGKLGLDRRDVHPSIALFAPVAVDSQGRFEWHGERRHKGDFVDLRAELDLLIAVSNCPHPLDPSPSYAPGDIELIRYQAPQPASDDLCRTVSLEAKRAFENNAFYLAGAAGRALEHHHHHH” was “soluble”; that for “MNTTPFPALSAETLLAVNTVGQWLAQNDFSGEQPYSSDCVVLAGNAVIPTIDAACRIAKAQGVPLLISGGIGHSTPFLYAVIARHPRYHTIRTSGRAEAAILADIANQFWHIPAEKIWLEDRSTNCGENARFSCALIRQAKENINTAIVVQDPTMQRRTIAAFRRVTNDDTDAPRWLSFPGFVPVLRHLNDGTRFANVEEGIWTVERYLSLIAGELPRLRDDETGYGPRGKDFIIHVDIPRDIENAWQVLQADTTLRSALGQRALRLEHHHHHH” was “soluble”; that for “MSLAKKILVTGAGGYIGRHVVSALLDAGQDVIASDLRLDGVDERATKVQANIFEPNDNLFEELGAPDVCLHMAWRDGFKHNSDNHMGDLSNHYRFLKHMLDSGLKQIAVMGTMHEVGYWEGAIDENTPCHPASMYGIAKNALREATLMLAKEYDATAQWIRAYYIVGDDAHGNSIFSKLLQAANDGKATFPFTTGKNKYDFIDVDELARQISAVVSQDAVDGVINCCTGEPMTLAERVERYIKENDLNIKLDYGAFPDRPYDSPGVWGDASKINKIMKEGHHHHHH” was “soluble”.
The value for “MGSDKIHHHHHHMSRLAHNKALPYKIIVDLSFHRTRLPSDVSSLIKFEQRPAIINIHGLLGSHVMFHSLNKLLSRKLDADIFSVDVRNHGISPKAIPYDYTTLTNDLIYFIETHIGLERPIYLLGFSMGGKIALLTTLYKNINIRKCISIDLPPYETPELDPMILQNYDLIMRIIRRDVKILRGSPSWQKKVLELFKSLECNKRKCGGAVALYFANGFLSVKSNNVHQAQLHYEQQQHDPYINYSMPLSSMPNLLDEVKKWPDLSNQRDFFQKGTASRKVLFMKGLQSNFINNDYSLLRYNFPCADVREFNTGHNLLLENPEDSFKCILNFFAEETLDFE” was “not soluble”.
With “GDYERILYELEGMYQFGKRSHLDISAFSIASGVGYQLPLPMNPQFWLRYDFASGDKNHRDGRSNTFNQLFPFGHYYFGYIDQVGRQNIHDFNAQFTLHPQPWVTFLGQYHRFYLANKRDYLYNAAGAGTIRDITGQSGSHVGDEIDFTINFHLSRHQDVLLGYSKLFTGEFLKNTRPGVSPDLFYAQYNFRF”, the “soluble on expression in E. coli” value is listed as “not soluble”.
The value for “MATGQDRVVALVDMDCFFVQVEQRQNPHLRNKPCAVVQYKSWKGGGIIAVSYEARAFGVTRSMWADDAKKLCPDLLLAQVRESRGKANLTKYREASVEVMEIMSRFAVIERASIDEAYVDLTSAVQERLQKLQGQPISADLLPSTYIEGLPQGPTTAEETVQKEGMRKQGLFQWLDSLQIDNLTSPDLQLTVGAVIVEEMRAAIERETGFQCSAGISHNKVLAKLACGLNKPNRQTLVSHGSVPQLFSQMPIRKIRSLGGKLGASVIEILGIEYMGELTQFTESQLQSHFGEKNGSWLYAMCRGIEHDPVKPRQLPKTIGCSKNFPGKTALATREQVQWWLLQLAQELEERLTKDRNDNDRVATQLVVSIRVQGDKRLSSLRRCCALTRYDAHKMSHDAFTVIKNCNTSGIQTEWSPPLTMLFLCATKFSASAPSSSTDITSFLSSDPSSLPKVPVTSSEAKTQGSGPAVTATKKATTSLESFFQKAAERQKVKEASLSSLTAPTQAPMSNSPSKPSLPFQTSQSTGTEPFFKQKSLLLKQKQLNNSSVSSPQQNPWSNCKALPNSLPTEYPGCVPVCEGVSKLEESSKATPAEMDLAHNSQSMHASSASKSVLEVTQKATPNPSLLAAEDQVPCEKCGSLVPVWDMPEHMDYHFALELQKSFLQPHSSNPQVVSAVSHQGKRNPKSPLACTNKRPRPEGMQTLESFFKPLTH” was “soluble”; that for “EIGEPDVTDATLGSVYSEIISPVKDCILTVAKAVSFNPGGKDNTDAVEVLTELNTKVERAALNQPILTTKTER” was “soluble”; that for “MSEISVTQTLDTLGLRCPEPVMLVRKNIRHLNDGEILLIIADDPATTRDIPSFCQFMDHTLLQCEVEKPPFKYWVKRGK” was “not soluble”.
The value for “KVGISMFNILQSTQLSSNTFDFWLEAPRIATHAQAGQFVILRIDEKGERIPLTIAETNPQAGSIRIIFQVIGKTTAALSQLKTSDSLLDITGPLGMPTEVKQYGTVMVVGGGVGIAAIYPIIKALKEAGNRVITILGARTAELVLLQEECRRYSDELIITTDDGSLGKKGLVTEAMEEVIARESVACSWAIGPSIMMKFCTLTAEKHQLPIYVSLNPIMIDGTGMCGGCRVTVDGTMKFACVDGPEFKGNEVNWDEFINRMKQYQEEEAVCFTDRLKEQVEKNG” was “not soluble”; that for “IETNRRERRIKRNKYLLSLYNNTNIKTSNFIYPLFIHEEDVEKKHTQLEGIYTYNVDGIIKEIEECIKLNIHHFMFFPVIREENKTVYCEESYNENSYFCKTISRIKEKFSDDIIVYTDVALDPYNIYGHDGIYDDNKKEILNDITVHTLVKQSLCLAKSGADVVCPSDSMDKRIELIRKNLDFHNFRDILILSYTCKYSSSMYKPFRSILNSNILKNFVKNKQSYQHDFNSYMDLNNVDKHIIEGADIIMVKPSMFYLDIIHKIKNRIKDDVQIPIAVYNVSGEYMMIKNYVKYLNEDINYENEIITELFKSYLRAGANIIITYFAKQYGLYMKKLYDKNIIIDDNSNNNFNIELTL” was “soluble”; that for “MEDKKDALISKTISMLLDNGFAVADISGQFSASFDIIARRNIERYVLKVLYNIDTLKPTTAYQLAKVAKFLRSTATIVGEKAGGGPLEDGVIYYRHGIPISSLDTFRDYINGEKPYIYSGPGGFYVKINGEALREMRMKMSLSIGYLSHYLGVSRRSVSLYENGSSATIDVFLKLQEIIKSDLVDHTDLFKIIPDNFQEEERVDDVYIQMLLDILERIGLDTKPAYRMPFDILARDEEVVSLIASLLSEEADKTKIEIMKKISSVLEDDAFLISKHSTTRENINGCPVINIVDLEKMTSKDELLRMLEKRAR” was “not soluble”.
With “MGSDKIHHHHHHAGSCTGNFEEYNTNQFQIHEADPSTLMKSMIETIVNIQQNDSQMMDQMVGQLGGYLTCANVWSGTNFGTFNQSDAWNAGPWNTNFEKIYGNFFQIQEATNESGHYYAFARMIRAITMLRVADCYGPMPYSQVKKGNFYVAYDTEEQVYKNIMEDFASAANVLYNYYKDTNGNAPLASNDPVFSGNYANWARLANSMRLRVAIRISTAYPEMAKENAEAAASHEAGLIEANNDNAMMDCGSQTNPYQLAAVSWGDLRVNANIVDYMNGYGDPRMSKYFNHSTFTGHTQEYVGMRSGEDGFAKSDVAGYSIPAITGTSKLLVFCAAETAFLRAEGKLKNWSVGNKSAKEYYEEGIKLSMEQYGTTMPDNYLTNTEKPTVSHNNDPRGHAYTISNTVAVAWNDNNEEENLQRIITQKWIANYPLGLEAWAEYRRTGYPELYPCIDNLSPSGVDSKRGMRRLRFPYTEVQNNHSNYQQGVSYLKNGGPDNEATDLSWGKTN” the entry was “not soluble”; with “MLDVPHGKFGFTKGCIIAVILLSLSRTLNRGQLNLERFEFWQPTSQLLALDVCLRDAFALEHHHHHH”, “not soluble”; with “MRTIVFDVDDTLYDQQQPFRNAMTKIFPNVATEDMHELYLRFRHHSDETFPKVLANEWSLDFMRFFRMNETLKDLNYPGISQEEGKIFQQVYEEELDNITMHPEVTKLLDTLQEKEIPMGIITNGPTDHQFKKVKQLNIEKWVPSQNIIISQSTGFQKPEKEIFDLACNQFCMEPEHTLYVGDSYDNDIVGARNGGWHSLWFNHRSRELPSCQPASHLAEVTCFTELCPTVEKLFNL”, “not soluble”.
On to “MENNTILHNYQDWLEHHKMPAGKKKTLVAAIELFSQQGYNGTSTAQIAEKAGISQATIFKYFKTKSDLLSEIMQPMIPELKRDFFPKLQTYTKLEEVVHFIVQDRFQFLTQNADLIKILIQEALVNVKLRKTLLTNIQLTISKDFMAYWQTLKQINPQINPNLSGIEVIRTNVGLLFAYFTQRFILNIPTPSEQKDLLLIEKQILTLLILDTH”, for which the “soluble on expression in E. coli” value is reported as “not soluble”.
